Changes are numbered by the printed parent chain.

For assay [1], the target named is T1, Avi/His-HuIL18BPa (recombinant human IL-18BP isoform A with Avi and poly-His tags) (human, biotinylated with BirA on the Avi tag in some assays).
T1 construct: also called human IL-18BP-Avi-His
T1 chain: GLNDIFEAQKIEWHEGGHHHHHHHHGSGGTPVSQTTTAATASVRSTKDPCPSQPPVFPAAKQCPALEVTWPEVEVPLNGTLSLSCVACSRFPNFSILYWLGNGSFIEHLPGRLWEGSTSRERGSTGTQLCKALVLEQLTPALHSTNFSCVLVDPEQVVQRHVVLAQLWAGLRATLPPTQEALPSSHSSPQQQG
The assay is described as follows: SPR Biacore T200, IgG captured on Protein A/G.

The target in assay [2] is T2, His/Avi-CynoIL18BP (recombinant cynomolgus IL-18BP with His and Avi tags) (cynomolgus monkey).
T2 construct: also called cynomolgus IL-18BP-Avi-His
T2 chain: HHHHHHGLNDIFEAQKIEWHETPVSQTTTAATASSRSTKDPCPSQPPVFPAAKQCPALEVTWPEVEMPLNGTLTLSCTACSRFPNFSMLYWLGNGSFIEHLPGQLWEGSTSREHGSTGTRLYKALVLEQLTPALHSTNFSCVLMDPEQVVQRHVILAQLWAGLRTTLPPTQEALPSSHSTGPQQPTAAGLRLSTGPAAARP
Nature of the assay: SPR Biacore T200, IgG captured on Protein A/G.

Assay [3] deals with T1, Avi/His-HuIL18BPa (recombinant human …). The assay is described as follows: cell-based or functional assay.
Assay [4] concerns the target T3, Avi/HisMsIL18BPd (recombinant mouse IL-18BP with Avi and poly-His tags) (mouse, biotinylated with BirA on the Avi tag in some assays).
T3 chain: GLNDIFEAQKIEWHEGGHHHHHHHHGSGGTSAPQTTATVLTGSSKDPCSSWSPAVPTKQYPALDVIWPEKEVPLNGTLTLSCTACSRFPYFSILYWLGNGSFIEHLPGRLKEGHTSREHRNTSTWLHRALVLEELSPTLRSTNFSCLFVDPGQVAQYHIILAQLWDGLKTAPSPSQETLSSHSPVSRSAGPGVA
The assay is described as follows: cell-based or functional assay.

B1: anti-IL-18BP antibody variant BP-04.32 (antibody, V domains shown)
VH: QVQLVQSGAEVKKPGASVKVSCKASGYTFTDYDMHWVRQAPGQGLEWMGIYSTYYGDVSYAQKFQGRVTMTRDKSTSTVYMELSSLRSEDTAVYYCARSGTYYYGTRESHALDYWGQGTLVTVSS
VL: DIQMTQSPSSVSASVGDRVTITCRASDNVYSNLAWYQQKPGKAPKLLIYGAISLADGVPSRFSGSGSGTDFTLTISSLQPEDFATYYCQHFWGNPYTFGQGTKLEIK
As to B1, in assay [1], the Kd came out at 20 nM, the koff was 0.0074 s⁻¹ and the kon came out at 370000 M⁻¹ s⁻¹. Moreover, in assay [2], the Kd is 59 nM, the koff was determined as 0.02 s⁻¹ and the kon came out at 340000 M⁻¹ s⁻¹. In assay [3], the “EC50 of IFNγ release, human PBMCs” value worked out at 0.838 nM. The “EC50 of IFNγ release, mouse splenocytes” value in assay [4] came out at 9.61 nM.

B2: anti-IL-18BP antibody variant BP-04.26 (antibody, V domains shown)
VH: B1 VH with D57V
VL: B1 VL
B2: the “EC50 of IFNγ release, human PBMCs” value in assay [3] is 36.2 nM. In addition, the “EC50 of IFNγ release, mouse splenocytes” value in assay [4] amounted to 6.02 nM.

B3: anti-IL-18BP antibody variant BP-04.21 (antibody, V domains shown)
VH: B1 VH with Y51I, D57V, Y103N
VL: B1 VL
Consider B3, for which the “EC50 of IFNγ release, human PBMCs” value in assay [3] came out at 4.48 nM. Also, in assay [4], the “EC50 of IFNγ release, mouse splenocytes” value amounted to 595 nM.

B4: anti-IL-18BP antibody variant BP-04.27 (antibody, V domains shown)
VH: B1 VH with Y51I, L112F
VL: B1 VL
Take B4: the “EC50 of IFNγ release, human PBMCs” value in assay [3] was 1.28 nM. Also, the “EC50 of IFNγ release, mouse splenocytes” value in assay [4] worked out at 39.6 nM.

B5: anti-IL-18BP antibody variant BP-04.22 (antibody, V domains shown)
VH: B1 VH with Y51I, D57V, F64K
VL: B1 VL
As for B5, the “EC50 of IFNγ release, human PBMCs” value in assay [3] was 7.71 nM. In addition, the “EC50 of IFNγ release, mouse splenocytes” value in assay [4] was 368 nM.

B6: anti-IL-18BP antibody variant BP-04.02 (antibody, V domains shown)
VH: B1 VH with M34L, Y51I, T101M
VL: B1 VL
For the molecule B6, the “EC50 of IFNγ release, human PBMCs” value in assay [3] turned out to be 41.5 nM. Besides, in assay [4], the “EC50 of IFNγ release, mouse splenocytes” value was 12.3 nM.

B7: anti-IL-18BP antibody variant BP-04.23 (antibody, V domains shown)
VH: B1 VH with L112F
VL: B1 VL
B7: in assay [3], the “EC50 of IFNγ release, human PBMCs” value came to 146 nM. Also, the “EC50 of IFNγ release, mouse splenocytes” value in assay [4] was determined as 3.5 nM.

B8: anti-IL-18BP antibody variant BP-04.05 (antibody, V domains shown)
VH: B1 VH with Y51I, D57V, F64K, L112F
VL: B1 VL
Consider B8, for which, in assay [1], the Kd amounted to 0.67 nM, the koff was found to be 0.00034 s⁻¹ and the kon turned out to be 510000 M⁻¹ s⁻¹. In assay [2], the Kd was 0.83 nM, the koff turned out to be 0.00038 s⁻¹ and the kon is 460000 M⁻¹ s⁻¹. In addition, the “EC50 of IFNγ release, human PBMCs” value in assay [3] worked out at 3.18 nM. In addition, the “EC50 of IFNγ release, mouse splenocytes” value in assay [4] is 4.92 nM.

B9: anti-IL-18BP antibody variant BP-04.25 (antibody, V domains shown)
VH: B1 VH with Y103N
VL: B1 VL
As to B9, in assay [1], the Kd was 21 nM, the koff was 0.0061 s⁻¹ and the kon came to 300000 M⁻¹ s⁻¹. In assay [2], the Kd is 100 nM, the koff was determined as 0.022 s⁻¹ and the on-rate (kon) worked out at 220000 M⁻¹ s⁻¹. For the same molecule, the “EC50 of IFNγ release, human PBMCs” value in assay [3] amounted to 5.05 nM. Further, in assay [4], the “EC50 of IFNγ release, mouse splenocytes” value was 28.9 nM.

B10: anti-IL-18BP antibody variant BP-04.03 (antibody, V domains shown)
VH: B1 VH with Y51I, D90N, S109Q
VL: B1 VL
For the molecule B10, in assay [1], the Kd is 1.9 nM, the dissociation rate constant (koff) was determined as 0.00091 s⁻¹ and the kon was determined as 470000 M⁻¹ s⁻¹. For the same molecule, in assay [2], the Kd is 3.1 nM, the koff turned out to be 0.0013 s⁻¹ and the kon was found to be 420000 M⁻¹ s⁻¹. Moreover, the “EC50 of IFNγ release, human PBMCs” value in assay [3] stood at 10.5 nM. Further, in assay [4], the “EC50 of IFNγ release, mouse splenocytes” value was determined as 0.881 nM.

B11: anti-IL-18BP antibody variant BP-04.08 (antibody, V domains shown)
VH: B1 VH with F64K, Y103N
VL: B1 VL
Regarding B11, in assay [1], the Kd worked out at 16 nM, the off-rate (koff) is 0.0035 s⁻¹ and the kon was 210000 M⁻¹ s⁻¹. In addition, in assay [2], the equilibrium dissociation constant (Kd) came out at 56 nM, the koff is 0.014 s⁻¹ and the kon stood at 260000 M⁻¹ s⁻¹. In addition, the “EC50 of IFNγ release, human PBMCs” value in assay [3] was determined as 174 nM. In assay [4], the “EC50 of IFNγ release, mouse splenocytes” value worked out at 94.1 nM.

B12: anti-IL-18BP antibody variant BP-04.07 (antibody, V domains shown)
VH: B1 VH with Y51I, D57V, F64K, Y103N
VL: B1 VL
As for B12, in assay [1], the Kd was determined as 1.9 nM, the koff was 0.00068 s⁻¹ and the kon worked out at 350000 M⁻¹ s⁻¹. Also, in assay [2], the Kd was 2.4 nM, the koff was 0.00076 s⁻¹ and the association rate constant (kon) came out at 320000 M⁻¹ s⁻¹. Further, the “EC50 of IFNγ release, human PBMCs” value in assay [3] is 4.3 nM. Besides, the “EC50 of IFNγ release, mouse splenocytes” value in assay [4] was found to be 51.9 nM.

B13: anti-IL-18BP antibody variant BP-04.28 (antibody, V domains shown)
VH: B1 VH with Y51I, A111P
VL: B1 VL
On to B13, for which, in assay [1], the Kd amounted to 4.7 nM, the koff is 0.0019 s⁻¹ and the kon came out at 410000 M⁻¹ s⁻¹. In assay [2], the dissociation constant (Kd) came out at 7.2 nM, the koff is 0.0023 s⁻¹ and the kon amounted to 330000 M⁻¹ s⁻¹. In addition, the “EC50 of IFNγ release, human PBMCs” value in assay [3] was found to be 71.2 nM. Moreover, the “EC50 of IFNγ release, mouse splenocytes” value in assay [4] amounted to 134 nM.

B14: anti-IL-18BP antibody variant BP-04.15 (antibody, V domains shown)
VH: B1 VH with Y51I, Y103N, A111P
VL: B1 VL
Regarding B14, in assay [1], the Kd came to 12 nM, the koff is 0.0028 s⁻¹ and the kon was 240000 M⁻¹ s⁻¹. For the same molecule, in assay [2], the Kd stood at 20 nM, the koff worked out at 0.004 s⁻¹ and the kon was 200000 M⁻¹ s⁻¹. In addition, the “EC50 of IFNγ release, human PBMCs” value in assay [3] is 12.3 nM. Besides, in assay [4], the “EC50 of IFNγ release, mouse splenocytes” value is 43.1 nM.

B15: anti-IL-18BP antibody variant BP-04.29 (antibody, V domains shown)
VH: B1 VH with Y51I, Y103N
VL: B1 VL
With B15, in assay [1], the Kd is 16 nM, the dissociation rate constant (koff) turned out to be 0.0062 s⁻¹ and the kon turned out to be 390000 M⁻¹ s⁻¹. In addition, in assay [2], the Kd was determined as 32 nM, the koff was found to be 0.011 s⁻¹ and the kon was 340000 M⁻¹ s⁻¹. Further, in assay [3], the “EC50 of IFNγ release, human PBMCs” value turned out to be 3.53 nM. In addition, the “EC50 of IFNγ release, mouse splenocytes” value in assay [4] is 45.5 nM.

B16: anti-IL-18BP antibody variant BP-04.09 (antibody, V domains shown)
VH: B1 VH with D57V, L112F
VL: B1 VL
Consider B16, for which, in assay [1], the Kd was 0.52 nM, the koff amounted to 0.00028 s⁻¹ and the kon turned out to be 530000 M⁻¹ s⁻¹. In assay [2], the Kd came to 1.3 nM, the koff was determined as 0.0006 s⁻¹ and the kon is 450000 M⁻¹ s⁻¹. Also, the “EC50 of IFNγ release, human PBMCs” value in assay [3] is 3.74 nM. Further, the “EC50 of IFNγ release, mouse splenocytes” value in assay [4] amounted to 2.04 nM.

By Kd is commonly meant the free concentration of one partner at which half of the binding sites on the other are occupied at equilibrium, for simple one-to-one binding. Broadly, the koff is a measure of how fast the partners let go of each other. The term kon denotes the rate constant with which the complex forms.

The values are drawn from US20250333523A1 (Alector, published 2025).
